Results on two substances are retold here after paper PMC6026317, “Molecular elements in FGF19 and FGF21 defining KLB/FGFR activity and specificity” (Molecular Metabolism, 2018).

Test [1] addresses Human β-Klotho (KLB) on 293/KLB cells (human) (UniProt Q86Z14).
The target is the same in test [2]. This is another data set of the same source.

Human β-Klotho (KLB) on 293/KLB cells (human), sequence (Q86Z14 whole entry): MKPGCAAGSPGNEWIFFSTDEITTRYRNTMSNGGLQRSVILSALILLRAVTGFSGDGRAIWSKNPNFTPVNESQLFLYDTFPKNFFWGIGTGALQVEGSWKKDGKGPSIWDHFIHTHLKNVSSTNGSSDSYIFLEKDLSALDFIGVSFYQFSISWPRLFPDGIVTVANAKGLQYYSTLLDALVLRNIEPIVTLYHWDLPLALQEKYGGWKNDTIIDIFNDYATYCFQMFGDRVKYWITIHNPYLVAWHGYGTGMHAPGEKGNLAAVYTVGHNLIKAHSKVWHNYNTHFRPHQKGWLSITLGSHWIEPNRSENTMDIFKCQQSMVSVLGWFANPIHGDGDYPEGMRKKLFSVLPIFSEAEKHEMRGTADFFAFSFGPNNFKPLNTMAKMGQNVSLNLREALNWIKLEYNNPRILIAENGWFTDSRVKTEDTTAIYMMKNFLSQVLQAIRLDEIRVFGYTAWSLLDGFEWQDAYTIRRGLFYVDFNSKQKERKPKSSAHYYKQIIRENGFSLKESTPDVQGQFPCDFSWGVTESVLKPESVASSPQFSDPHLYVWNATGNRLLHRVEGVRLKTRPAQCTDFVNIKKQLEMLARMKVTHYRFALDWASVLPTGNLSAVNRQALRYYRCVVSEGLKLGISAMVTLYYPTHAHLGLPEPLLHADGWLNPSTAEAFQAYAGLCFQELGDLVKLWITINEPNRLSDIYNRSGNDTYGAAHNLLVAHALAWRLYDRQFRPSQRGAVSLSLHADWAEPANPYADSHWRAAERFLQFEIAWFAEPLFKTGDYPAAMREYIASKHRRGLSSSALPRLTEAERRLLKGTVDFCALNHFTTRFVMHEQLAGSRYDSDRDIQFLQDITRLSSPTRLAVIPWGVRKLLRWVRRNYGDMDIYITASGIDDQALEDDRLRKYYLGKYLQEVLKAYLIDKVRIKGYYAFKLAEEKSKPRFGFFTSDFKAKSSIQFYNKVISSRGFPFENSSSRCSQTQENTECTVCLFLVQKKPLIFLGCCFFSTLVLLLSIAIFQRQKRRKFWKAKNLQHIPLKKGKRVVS
FGF21-19A hybrid, sequence (Q9NSA1 other isoform, or with tags, fused parts or gaps): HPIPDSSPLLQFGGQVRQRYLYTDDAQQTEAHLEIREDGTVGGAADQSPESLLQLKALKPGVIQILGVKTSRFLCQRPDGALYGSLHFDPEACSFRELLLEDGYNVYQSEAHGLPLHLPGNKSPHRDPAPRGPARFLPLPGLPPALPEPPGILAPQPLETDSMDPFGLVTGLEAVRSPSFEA
19C26,A^26, sequence (O95750 other isoform, or with tags, fused parts or gaps): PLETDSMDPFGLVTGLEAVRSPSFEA

Turning to “19C26,A^26 (from UniProt O95750 191-216) (peptide)”, the potency of inhibition of FGF21 and FGF19 pERK signalling in 293/KLB cells, relative to 19C26, 21C25 and FGF21^18−181 in test [1] was above 20 fold.

Turning to “FGF21-19A hybrid (from UniProt Q9NSA1 29-184; O95750 191-216) (ligand)”, the pERK agonism in 293/KLB and Hep3B cells, potency relative to native FGF21 in test [2] stood at 10 fold.
